In paper PMC8775132, “Complement-Mediated Selective Tumor Cell Lysis Enabled by Bi-Functional RNA Aptamers”:

Tests used:
complement C3 = complement C3 (human, UniProt P01024;P01024 23-667;672-1663); assay: filter binding; 20 mM HEPES pH 7.4, 150 mM NaCl, 10 mM MgCl2, BSA and yeast RNA 1 ug/20 uL each, 45 min at 37 C; conditions: protein: native; copies: 1;1; label: 32P
complement iC3b [1] = target: T1, complement iC3b (human, UniProt P01024;P01024;P01024 23-667;749-1303;1321-1663); assay: as above; conditions: protein: native; copies: 1;1;1; label: 32P
complement C3b = complement C3b (human, UniProt P01024;P01024 23-667;749-1663); assay: EMSA; 250 nM protein; 20 mM HEPES pH 7.4, 150 mM NaCl, 10 mM MgCl2, BSA and yeast RNA 1 ug/20 uL each, 45 min at 37 C; conditions: protein: native; copies: 1;1; label: 32P
complement iC3b [2] = target: T1, complement iC3b; assay: as above; conditions: protein: native; copies: 1;1;1; label: 32P

T1 sequence (P01024 23-667, chain 1 of 3): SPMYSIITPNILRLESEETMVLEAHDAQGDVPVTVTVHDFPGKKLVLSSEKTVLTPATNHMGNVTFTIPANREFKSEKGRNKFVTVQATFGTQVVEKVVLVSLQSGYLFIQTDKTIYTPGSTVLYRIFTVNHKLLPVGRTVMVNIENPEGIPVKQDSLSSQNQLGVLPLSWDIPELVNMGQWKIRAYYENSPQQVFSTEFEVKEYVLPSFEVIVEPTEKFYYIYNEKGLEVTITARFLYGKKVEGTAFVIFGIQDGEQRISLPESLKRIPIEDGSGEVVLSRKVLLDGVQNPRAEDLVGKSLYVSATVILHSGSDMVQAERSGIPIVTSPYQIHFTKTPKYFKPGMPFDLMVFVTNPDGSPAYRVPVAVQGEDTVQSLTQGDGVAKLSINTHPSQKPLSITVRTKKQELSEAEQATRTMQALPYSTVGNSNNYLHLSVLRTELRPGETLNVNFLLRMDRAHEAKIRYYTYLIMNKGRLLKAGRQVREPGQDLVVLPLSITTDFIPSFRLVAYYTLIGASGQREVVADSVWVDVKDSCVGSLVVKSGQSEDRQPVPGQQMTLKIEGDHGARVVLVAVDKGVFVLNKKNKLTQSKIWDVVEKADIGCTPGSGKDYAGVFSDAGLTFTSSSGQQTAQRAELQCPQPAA
T1 sequence (P01024 749-1303, chain 2 of 3): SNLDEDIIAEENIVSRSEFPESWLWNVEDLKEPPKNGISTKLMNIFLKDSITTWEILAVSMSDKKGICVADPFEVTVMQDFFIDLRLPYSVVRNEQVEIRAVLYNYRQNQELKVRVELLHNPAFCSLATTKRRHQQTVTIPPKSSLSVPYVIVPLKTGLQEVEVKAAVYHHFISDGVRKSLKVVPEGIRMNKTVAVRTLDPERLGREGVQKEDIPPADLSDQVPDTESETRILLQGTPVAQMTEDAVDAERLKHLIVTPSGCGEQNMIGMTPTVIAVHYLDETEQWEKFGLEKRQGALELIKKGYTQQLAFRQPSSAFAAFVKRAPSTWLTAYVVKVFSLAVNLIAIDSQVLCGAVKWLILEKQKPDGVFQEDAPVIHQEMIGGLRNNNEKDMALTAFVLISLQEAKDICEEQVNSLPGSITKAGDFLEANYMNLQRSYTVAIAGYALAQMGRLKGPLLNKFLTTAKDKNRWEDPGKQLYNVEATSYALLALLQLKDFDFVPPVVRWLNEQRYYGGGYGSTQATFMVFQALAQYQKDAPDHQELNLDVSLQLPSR
T1 sequence (P01024 1321-1663, chain 3 of 3): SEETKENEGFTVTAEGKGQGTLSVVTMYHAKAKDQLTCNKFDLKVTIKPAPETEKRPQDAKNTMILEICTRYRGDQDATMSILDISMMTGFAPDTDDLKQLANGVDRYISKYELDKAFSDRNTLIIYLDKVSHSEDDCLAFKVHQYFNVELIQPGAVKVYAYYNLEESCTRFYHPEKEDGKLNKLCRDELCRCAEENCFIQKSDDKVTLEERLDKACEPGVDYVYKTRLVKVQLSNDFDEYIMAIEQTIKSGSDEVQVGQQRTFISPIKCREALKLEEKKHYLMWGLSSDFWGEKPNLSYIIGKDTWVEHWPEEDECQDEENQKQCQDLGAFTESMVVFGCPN
complement C3b, sequence (P01024 23-667, chain 1 of 2): as the sequence (P01024 23-667, chain 1 of 3) above
complement C3b, sequence (P01024 749-1663, chain 2 of 2): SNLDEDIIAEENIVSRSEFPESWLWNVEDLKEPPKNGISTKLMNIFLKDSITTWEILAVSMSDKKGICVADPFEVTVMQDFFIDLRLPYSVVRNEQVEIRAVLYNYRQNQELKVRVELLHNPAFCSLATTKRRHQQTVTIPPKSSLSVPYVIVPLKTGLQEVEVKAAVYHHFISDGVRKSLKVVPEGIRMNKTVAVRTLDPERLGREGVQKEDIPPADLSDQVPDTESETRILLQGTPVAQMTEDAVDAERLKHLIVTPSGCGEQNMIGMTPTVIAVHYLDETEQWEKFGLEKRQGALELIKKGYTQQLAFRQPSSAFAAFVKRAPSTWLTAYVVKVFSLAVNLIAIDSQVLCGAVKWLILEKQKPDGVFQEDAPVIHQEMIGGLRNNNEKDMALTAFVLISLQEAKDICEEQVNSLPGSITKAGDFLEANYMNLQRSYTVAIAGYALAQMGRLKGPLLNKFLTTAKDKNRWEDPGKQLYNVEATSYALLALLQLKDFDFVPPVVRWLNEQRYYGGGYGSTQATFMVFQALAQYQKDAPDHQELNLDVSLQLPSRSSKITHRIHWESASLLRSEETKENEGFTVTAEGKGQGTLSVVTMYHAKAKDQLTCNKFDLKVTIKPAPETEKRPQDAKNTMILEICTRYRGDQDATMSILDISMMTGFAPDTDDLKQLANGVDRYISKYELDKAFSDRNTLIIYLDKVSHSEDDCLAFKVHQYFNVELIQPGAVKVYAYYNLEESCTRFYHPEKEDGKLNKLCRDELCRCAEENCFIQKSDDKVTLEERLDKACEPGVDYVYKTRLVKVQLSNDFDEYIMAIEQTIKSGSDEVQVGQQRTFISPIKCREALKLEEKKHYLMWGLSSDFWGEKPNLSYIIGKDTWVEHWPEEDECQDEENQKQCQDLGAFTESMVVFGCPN
complement C3, sequence (P01024 23-667, chain 1 of 2): as the sequence (P01024 23-667, chain 1 of 3) above
complement C3, sequence (P01024 672-1663, chain 2 of 2): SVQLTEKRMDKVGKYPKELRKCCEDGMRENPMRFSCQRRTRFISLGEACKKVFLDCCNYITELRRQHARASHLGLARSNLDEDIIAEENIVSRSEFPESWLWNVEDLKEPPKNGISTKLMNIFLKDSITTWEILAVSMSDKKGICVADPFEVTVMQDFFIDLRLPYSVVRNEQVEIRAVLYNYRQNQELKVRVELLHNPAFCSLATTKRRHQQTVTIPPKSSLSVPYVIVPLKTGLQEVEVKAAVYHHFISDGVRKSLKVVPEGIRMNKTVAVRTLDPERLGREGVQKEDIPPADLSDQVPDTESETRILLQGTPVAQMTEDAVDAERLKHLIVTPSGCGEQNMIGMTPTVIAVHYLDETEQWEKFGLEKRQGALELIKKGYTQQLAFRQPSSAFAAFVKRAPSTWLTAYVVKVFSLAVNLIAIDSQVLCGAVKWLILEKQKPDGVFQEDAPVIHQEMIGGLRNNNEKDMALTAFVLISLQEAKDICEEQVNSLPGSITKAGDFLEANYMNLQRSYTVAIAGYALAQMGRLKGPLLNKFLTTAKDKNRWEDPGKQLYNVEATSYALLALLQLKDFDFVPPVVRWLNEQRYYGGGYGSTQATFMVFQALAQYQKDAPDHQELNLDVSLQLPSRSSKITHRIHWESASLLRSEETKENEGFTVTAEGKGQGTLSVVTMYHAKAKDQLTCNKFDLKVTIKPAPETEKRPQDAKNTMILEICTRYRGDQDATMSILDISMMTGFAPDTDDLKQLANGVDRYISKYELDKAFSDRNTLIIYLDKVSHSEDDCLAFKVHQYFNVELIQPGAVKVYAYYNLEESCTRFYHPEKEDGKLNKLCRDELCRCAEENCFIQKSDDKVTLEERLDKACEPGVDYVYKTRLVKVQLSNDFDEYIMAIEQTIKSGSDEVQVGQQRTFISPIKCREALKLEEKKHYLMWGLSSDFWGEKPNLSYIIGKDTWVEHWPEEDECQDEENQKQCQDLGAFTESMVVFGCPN

B1: AptC3-III (structured_RNA)
RNA: GGGAGAAUUCAACUGCCAUCUACAGCCCCUCGGCCGCGUUCAGCGUCUAACCUUGGGCUGUAUAGAAAGGGUUUCCAGACUACAAGCUUCUGGACUCGGU
modifications: 2'-fluoro pyrimidines
Complement C3
  Kd: 17 nM
Complement iC3b [1]
  Kd: 14.5 nM

B2: AptC3-VI (structured_RNA)
RNA: GGGAGAAUUCAACUGCCAUCUAACCACGUAGUAAUACGGUAUGAUCCAGUUUUAAUUCUAACCAGACUGUUCAGAUGACUACAAGCUUCUGGACUCGGU
modifications: 2'-fluoro pyrimidines
Complement C3b
  binding result: binds

B3: AptC3-IV (structured_RNA)
RNA: GGGAGAAUUCAACUGCCAUCUAGUUGCAAAAACAUGAGGAUAGCAAAGUACCAGUGCAACUAACAAGGAAAAGAAGACGGACUACAAGCUUCUGGACUCGGU
modifications: 2'-fluoro pyrimidines
Complement C3b
  binding result: binds
Complement iC3b [2]
  binding result: binds
